Experimental data: the domain aggregation screens of Martell et al. (2025)

Assay: soluble fraction after stress (log2 fold change); higher = more stays soluble; pooled small domains, quantitative proteomics
Settings: stress: pH 4
Method in brief: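 Aggregation propensity is estimated from the fold change in each domain's soluble amount after acid stress. Pooled small-domain libraries were stressed at pH 4, and higher log2 values mean more stayed soluble.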

Sequence | soluble fraction (log2)
HMDSVEMFSPILGMNANMDLDTLTQTRDKLLEKYKDDEQLIGLVNKTYDYFNEILLKQFLIEELEKNE | -0.207
HMDSVFGVVTSSDGVKLRKEASTISKVLTVLPYGTEVDVDRIGSEWIRIVTDGGQKGYVSADYLAVREGER | -0.1
HMDSVPEEQLRQLALDKAKEVKRWGQPVELAKMNAHDRRIIHINLQDDPEIETRSEGEGALKSVIISLKK | 0.135
HMDSYADVLSDYRGKYKTNTISGLKGLRDKIREDMLAAADSLDFEKAALLRDEMNDLNKKIELKEKT | -0.486
HMDTERLYAYAWQTHLKQFGLNISEEEIRQFVGVDDRIVHSFYAKTVPLDDFENTMFSLGEIIQQSL | -2.08
HMDTFNVIARQEIDGILYEYKIMTVEDYKNQSPENLAVIYENIKAVMEQYDLSEDDADAILVDLLG | -1.51
HMDTIRINSGSTVKEVAEYLGIPVPEVIKKLMSMGELATLTKTLSDDHIEVLAEEFEKKIKIVHVGEEAD | -0.61
HMDTITDSYTLEKGKLRAKVMEYELPESKKKEYSATFEYRGVYYHMIGIIEKADFEEILKNLHFP | -0.53
HMDTIVVAARSIQARQTLTESDLRVEEQEIGAASDKYYTDIAEAVGLVSSRRLSPGQPILRTM | -0.273
HMDTLKDFISGVSIVFENKYSVGDNVTIGDFRGDVIELGMKTTKIRAYTGEVLIIPNHLVEKVINH | -0.665
HMDTLRARQEAAYRFLSAIAGDWRNYEEANRALFAGDAARFQDLTESWPADVRDHARHLASAAFSS | -1.15
HMDTNAIIGLRIKNLRTEKKYTLKYLSENTGLSIGFLSQLERGMTSIAIDSLDKISKVLDVELSSFFT | -0.14
HMDTNELIDRYVNEVGQHLPRKTRADIEMELRSLLLDTLEEQSGGEPTPKMAAEVLREFGHPEEIAAQYH | -0.755
HMDTRKKLEQIFKLFDKTGTGMVNIDEFKSVLKLFMEEIDEKFGNYFIAYFDENGDGKIEFEEFADVVL | -0.462
HMDTSAHEVLSAIRSIIEDEDKRHPLSDEAITSRLSQQGYDIARRTVAKYRERLGLPVARLRRE | 0.376
HMDVALEALDESDGAVRLQFSGALQTYLNDSTTAASLEAISKTFRAFYEAAGRPVDTLEVYAAGEPVT | -0.42
HMDVDKQLDQLLAAMIPDKSLRQTIKTKAFNELVDNELADKDISSWTKQTMDVFMTRAEDMFGAM | -1.43
HMDVEMLIDKYQLNDSEAEVLRFMKKNRQSLKTIGIRDVAKATYVSTATIINMAKKIGYSGYSELVFALGN | -0.319
HMDVNAQAGYDKLQSNQLDGARHDYEQALKTDPNNVDTLLALAAIAQRQGRSADADGYRQRAIDAD | -0.245
HMDVNHVIIDHKGNSIQAIIDSIDLDNVYYQSKIKKESEVIDIDKVYFIFNDFDRVYHYDWSYYENL | -0.468
HMDVNLSIRSGETIGIIGSTGSAKSTLVQLIPRLYDTTEGEVLVGGVNVKNYDLEALRNSVAMVLQKN | -0.155
HMDVPNLVGEEIKDVRRTLRHFQLEVIGEGSKIVSQVPKHGQRLPENTTIRVYLN | -0.0434
HMDVPNLVGKTLEEAENELKKLNIRYNVTERADEAPKDTVIEQSPKPYEAMEPGTVVNLVISSGPA | -0.912
HMDVQPHIYLRKLDQFWPADLHSLILYTLDGRRLWSADSGNIPALPHRASSLVILEATWDNGQRTRRKQFL | -0.116
HMDVRKSISDLKALGLSDAAVTVYGTIGNKPVHIDKIVSELGIPVFKVLTALTQLEMKGLVTAMQGRMYVL | -0.168

Sequence | soluble fraction (log2)
HMDVSASEVGLTGRQTDVLSLMVKGRSNRDIAELLGLSEGTVKIHITAIFKALGVASRTQALVAAARLGLK | -0.212
HMDVSLVEQTQRDILEYISKNNSNAQLPKEQEFVGLLGVSRVVVREALSRLRALGIIETKRKKGTVVVVPE | -0.31
HMDWVAYGAELRRRRLLAGWSVAELSRRTNLSTSIIYQVEQARTRLRPSQLTLAKLAAALGMP | -0.0217
HMDYAQAQRQAESAIALRPDVERLRLLLIYALQKQGKLREAEQAAADAIKSGLDTPALRQARANLRP | -0.205
HMDYGSISFINWSIEVLSVIKTRLDRGDKIIDEVSGEKYTASSFEKFVRKNFSSYIFSQVYAEDHKK | -0.016
HMDYHTIQTGDKGDEVLRLQQALAEYGYYEGDLDGRFGQQTRRAVERFQYSHGLTADGIAGRNTLSVLYD | -0.051
HMDYIITHYPDNKRFETQVDGVVAFVQYRLSGDKLDIIHTIVPPAIGGRGIAAALVKYAYDYAIENGMK | -0.666
HMDYKSKLQELVQTEKRTVEYKLVDESGPAHNKSFTFEVVISGIKYGSGTGASKKIAEQNAAKEALEKLA | 0.144
HMDYKSTLQELVQTVKKSVTYEVIDEEGPSHNKTFTSIVKIDGIVMGKGTAGSKKASEQEAARDALSKR | -0.0966
HMDYLYHNGKEIDQGSIMYKMEDYSDGIFELQSAKYADGTELDEKELEELESTQELIDWVMIDFVS | -1.99
HMDYNSYGLTERELELVDYVLKGYSRKEMAEASGLKVNTIGSYMKKIYRKLNIHNRTELKERFI | -1.31
HMDYNYLVFVTNTGPRSIAVEDLEMTVSDGKLVVSSGADGETFDLSTLTKMYFSDAAVVSINDV | -1.14
HMDYQYILVDVKDRIATVTINRPEYSNAFARESYYEIADAMNTLGARDDVGVIVITGAGKHFSAGGDIKRF | -0.652
HMDYYKILGLSTSATLDQIKKAFRQLAIEFHPDKNPNNPTAEDKFQRISEAYAVLSNPEKRAEYDRSY | -0.17
HMEAAETAVVTGTIVNIRSGPTLDFEAFAQVKQGDRLPVLDKFYNWYYVKLPSGVNGWISGQLVRIEQ | -0.673
HMEAELNSLVKTYENMKPKAAAQVFEELDMDVLLDVVERMKEKKLAPILAQVTPTRAKEITYELTQRR | -0.0962
HMEAFDYLGRRTRDLLERQGWTTVPLVRDAYLAVPGGERLLQVPGFGRKSLREVRRWLWLQIGDPRFE | 0.114
HMEAIYKKNKNLIHTVIRDNFPFLIDTADYEDAFQEGSIGLIRAIDRFDDGLEYKFSSYAYTAIRNQIA | -0.165
HMEALGLSPRQVDVLRLLVEGRSNKMIMRELELSESTVKTHLQAIFRRLGVSSRTQAVVAAARLGL | -0.418
HMEALSAREIEILQALETGASNRELAKMLFISEATVKTHLVHIYQKLGVGTRTAAITEARERRV | -0.237
HMEANAYFDAYPDVAAEWARLSGSDEGKATLSAIGVTTPQQFAQYHYTTFGSKENRNAPVGYTP | -0.47
HMEANPLTDREKEVLELVADGKNTKEIAQELSIKSGTVRNYISMILEKLEVKNRIEAITRSKEKGWF | -0.025
HMEAPMPIFWRPQFRIGHDDIDADHRYLILLINTVELVLRFPDDPRNVELALTELRRYAEDHFEREER | 0.0123
HMEAQAHYDAIYKAHPNADSIAQSAEFKAWVDAQPSVVRNAYWQLFDPKEGGTAEQIVEVFDAFVKSS | -1.83
HMEDDIRSSIRTLDQFISKNQITLSKDVKNYILQLLSNDRMVTINELEKIKIYYDSNENIDLDTVKILLN | -1.4

Sequence | soluble fraction (log2)
HMEDEEILNEIRHTEQYVYYFGNYIMEHHVSRGLSKEKVIASLARELQIEIADIREDFDGMIEQIKTNILN | -0.416
HMEDESSIERYLGSGAIKGIGPSLAARIVKKFGKDTFRIIEQEPERLAEIKGISERKAMEISTLMEEK | 0.0126
HMEDGRLPPPGTVLRREYKGRAVFVRVLPKGFEFEGEVYRSLSAIAAKVTGSHWNGFRFFGLHE | 0.199
HMEDHMVVFGKGGRITRLPDKATVLEYLDAANFFASRSSVVKVNGKLASLDQTLRDGDSIEIVD | -0.473
HMEDINAVLAENLRRLRESRRLSLDAVARLTGVSKSMLGQIERGEVNPTVSTMWKIAGGLKVNFTALFRRE | ≥ 0.43
HMEDIQPSVIFQNNMIDGFKKFGVSFLQNRRNVNVNTLNGLASAGTYPKWQQLLVNKISYIDMLLSTGG | -0.137
HMEDKIIVTVPGEYHLERIDRFLAANLEEDLSRSLIQRYIRENLITVNGEAVRANYKVKTDDEILITFPQ | -1.04
HMEDLAERLDNLSTMYAKMDPVRAAQVLLESKNKSENIEVLKRLKPKSLGLILENMPPREAYDYVSELQ | 0.0298
HMEDLGYVKVASQTAAIRKSAAVQAGQIGTVHEGETYRYLGEEEGWYLVEYNGQKAYISWDDGEL | -0.553
HMEDMMKALLDVVRAQHTATEGSEERPFDINDIIDMALNITGRPEEPEEQQELSDTIQKLAESLAPDIFP | -0.596
HMEDNKLKNEIKNELVSHLEKPYSVEDLADALKYHGSAAFKLIVQELAILERERAVVVTHDGNFKINSS | -0.0181
HMEDPAVYYKILQIPPDASLSEIHRAFEKITSAWDPERYPHISSWKETSAKKLQEIRNAYEKLLILRETG | -0.00219
HMEDPFLWVEKLGSSDWIEREESAEKLLEAGEASVEALRTALTHPDLEVRERVRELLSVISPL | -1.82
HMEDPRVTEIKNLQQDLAKKFKPTQGPASASDAVERVTAITTVMTKVAALPEDLRSEAMQPGKKM | -0.0985
HMEDQFWQNRAEMALASARRAGRIVTYAEMADAADIPAPQRIHKLTLWLEATMRQDHASGQPLRAALV | -0.0778
HMEDQITNQQFTMTKQSILDLLVKKSYPPYELANELHLKKEEVLPIIRFLIAENEIHFKDGMLHLPH | -0.0688
HMEDQLDSLKDIIYDYLENNELYYNDLQEFKKIIIENMEFIHPNLNHKLIDNNFFKLINFKLEYNF | -0.828
HMEDSSSILNRMRKLIALLNRASEAYYKENKEIISNFEYDRLYDELLGLESRSNTVLSGSPTYKV | -1.21
HMEDTFEYPVSVNGKLRFKIELPVSMEKDEIRNIVLNDERAKKWLATGTLTNLIVVPNRIINIVIK | 0.0025
HMEDTSTLSIKHKIKELINQESPQAILSDDKLVELLAAQGIKIARRTIAKYRETMNIPTSAERKRQKRPP | 0.275
HMEDVTLSLVVGEDLDGERLDVFLTWKLDRTRSQVQALIRDGKVRLEQGQRARPSMVVRSGMGISVSLEPR | -1.11
HMEDYYKILGVSKDASIDDIKKSYRKLSLQNHPDRNKSPQASENFAKINSAYEVLSDQRKKRQYDMQQSM | ≥ 0.43
HMEEAQWEFKWENTDSAEIHGPHSSSEMLKWQENSFFAKGVYVRKVGGDTTDFTDGKRIDFDLY | -1.69
HMEEDPILVAQRFLNIFRQLHIFDQQRREEFNSMILALPPEIRGTFGVLPGGSVLQEYVDELEISKGMA | -1.33
HMEEDPVISQAQRQALFKLAHDHFGQEEGNKVILRLIGEHGLRSTTNMTASVYKTVTDALIQVIESMVEG | -0.444
